Data on three molecules can be found in patent publication US20180362643A1 (Amgen, published 2018).

Ends that are not written are not given here.

Test [1] addresses T1, PACAP38 peptide fragment 11-27 (human).
T1 construct: also called peptide No. 8
T1 peptide: SRYRKQMAVKKYLAAVL
Description: SPR (Biacore 3000), solution competition with the peptide for antibody binding to immobilised full-length PACAP38; % inhibition. The procedure: (§1) The binding epitopes of anti-PACAP antibodies were evaluated by using the Biacore 3000 biosensor-based instrument (GE Healthcare USA). The Biacore 3000 instrument utilizes surface plasmon resonance (SPR) technology to measure mass increase on the sensor-chip surface. The binding interactions are measured in real-time and recorded as Response Units (RU). Each binding profile (cycle) is stored in a “sensorgram” in real-time. Generally, Biacore technology entails immobilizing a ligand of interest on to a flow-cell of the sensor-chip via a coupling chemistry. The analyte (e.g. putative binding partner to the ligand of interest) is injected across the immobilized ligand allowing it to bind to the ligand-immobilized surface. The magnitude of the response is directly proportional to the mass increase on the immobilized surface due to the binding of the analyte.
(§2) In this experiment, various peptide fragments of PACAP38 were incubated with each of the six antibodies (mAb1, mAb2, mAb3, mAb4, mAb5, and mAb6) described in Example 2 and evaluated for their ability to inhibit binding of the antibodies to full-length PACAP38 immobilized on the sensor-chip. The binding epitopes for each of the antibodies were deduced from the set of peptides that were able to inhibit the binding of each antibody to full-length PACAP38.
(§3) Each of the six anti-PACAP antibodies was incubated at a 1:200 molar ratio (Ab: peptide fragment) with each of the peptide fragments in Table 9 at an ambient temperature for 2 hours prior to analysis. […] A second control containing 6.5 nM antibody was prepared in sample diluent to be used as the untreated control sample for each antibody. Full-length PACAP38, buffer, and each peptide fragment were also tested to evaluate non-specific binding to the immobilized PACAP38 surface.

Test [2] concerns the target T2, PACAP38 peptide fragment 6-36 (human).
T2 construct: also called peptide No. 12
T2 peptide: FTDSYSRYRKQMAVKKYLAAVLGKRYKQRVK
The test is described as above. As to the method: as §1, §2, §3

The target in test [3] is T3, amino terminal PACAP38 peptide (amino acids 1-13) (human).
T3 construct: also called N-terminal Peptide; N-terminal PACAP peptide
T3 peptide: HSDGIFTDSYSRY
The description is as above. The procedure:
as §1, §2, §3

Test [4] addresses T4, PACAP38 peptide fragment 6-35 (human).
T4 construct: also called peptide No. 4
T4 peptide: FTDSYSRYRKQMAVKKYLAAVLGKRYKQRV
The test is described as above. The procedure:
as §1, §2, §3

In test [5] the target is T5, PACAP38 peptide fragment 4-27 (human).
T5 construct: also called peptide No. 9
T5 peptide: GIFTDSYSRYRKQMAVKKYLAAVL
The description is as above. The procedure:
as §1, §2, §3

Test [6] concerns the target T6, human PACAP27 (human, not fully specified).
T6 construct: Natural isoform, amino acids 1-27 of PACAP38; also called peptide No. 1 (amino acids 1-27 of PACAP38)
T6 peptide: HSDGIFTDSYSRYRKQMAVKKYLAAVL
The description is as above. As to the method:
as §1, §2, §3

Test [7] deals with T7, PACAP38 peptide fragment 14-38 (human, not fully specified).
T7 construct: also called peptide No. 7
T7 peptide: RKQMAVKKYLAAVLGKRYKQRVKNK
The experiment in a line: SPR (Biacore 3000), solution competition: antibody pre-incubated 2 h with the peptide at 1:200 molar ratio (Ab:peptide), then injected over immobilised full-length PACAP38; readout % inhibition of antibody binding (filing counts >50 % as reactive). The procedure: as §1, §2, §3

Test [8] deals with T8, PACAP38 peptide fragment 27-38 (human, ends and bridges not checked).
T8 construct: also called peptide No. 6
T8 peptide: LGKRYKQRVKNK
The description is as above. As to the method:
as §1, §2, §3

The target of test [9] is T9, PACAP38 peptide fragment 34-38 (human, ends and bridges not checked).
T9 construct: also called peptide No. 17; RVKNK
T9 peptide: RVKNK
The experiment in a line: SPR (Biacore 3000) solution competition: antibody pre-incubated 1:200 with the fragment, then injected over immobilised PACAP38. As to the method: as §2, §3

Test [10] concerns the target T10, full-length human PACAP38 (human, not fully specified).
T10 peptide: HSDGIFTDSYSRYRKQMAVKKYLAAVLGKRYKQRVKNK
The experiment in a line: cell-based or functional assay.

The target of test [11] is T6, human PACAP27. The experiment in a line: cell-based or functional assay.
Test [12] deals with T1, PACAP38 peptide fragment 11-27. The experiment in a line: SPR (Biacore 3000) solution competition: antibody pre-incubated 1:200 with the fragment, then injected over immobilised PACAP38. The procedure:
as §2, §3

The target in test [13] is T7, PACAP38 peptide fragment 14-38. The test is described as above. The procedure:
as §2, §3

The target of test [14] is T4, PACAP38 peptide fragment 6-35. Described as above. As to the method: as §2, §3
The target of test [15] is T5, PACAP38 peptide fragment 4-27. The description is as above. The procedure: as §2, §3
Test [16] has as its target T8, PACAP38 peptide fragment 27-38. Description: SPR (Biacore 3000), solution competition with the peptide for antibody binding to immobilised full-length PACAP38; % inhibition. The procedure:
as §1, §2, §3

Test [17] deals with T5, PACAP38 peptide fragment 4-27. Description: SPR (Biacore 3000), solution competition: antibody pre-incubated 2 h with the peptide at 1:200 molar ratio (Ab:peptide), then injected over immobilised full-length PACAP38; readout % inhibition of antibody binding (filing counts >50 % as reactive). The procedure: as §1, §2, §3

B1: mAb2 (antibody, V domains shown)
VH: QSLEESGGGLVQPEGSLTLTCTASGFSFNSSSYMCWVRQAPGKGLEWIGCIFTGSSGNTYYATWAQGRFTISKTSTTVTLEMTSLTAADTATYFCARDRAYFLVGYFYATYYFDLWGPGTLVTVSS
VL: DVVMTQTPSPVSAQVGGTVTINCQASESIDSDLSWYQQKPGQPPKLLIYRTFTLESGVPSRFKGSGSGTDYTLTISDLECADAAIYYCQCTDGSSISGSYGWDAFGGGTEVVVKG
notes: Rabbit monoclonal antibody (SLAM), recombinant; also called monoclonal anti-PACAP antibody 2; 2 (c81)
Take B1: the binding result (in [1]; in test [2]; in test [3]; in test [4]; in test [5]; with human PACAP27 [6]) was “no binding (tested: 1:200 molar ratio (Ab:peptide))” throughout. Moreover, the binding result in test [7], in test [8] and in test [9] was “binds” each time. Besides, the “IC50, inhibition of PACAP38-induced activation of the PAC1 receptor (cAMP assay, CRL-2266 cells)” value in test [10] was below 1 nM. Also, the “potency relative to PAC1 Ab, inhibition of PACAP38-induced PAC1 receptor activation (cAMP assay)” value in test [10] is around 10 fold.

B2: mAb5 (antibody, V domains shown)
VH: QSVEESGGRLVTPGTPLTLTCTVSGFSLSTYNMCWVRQAPGKGLEWVGFINSDDSAYYASWAKGRFTFSKTSTTVDLKIASPTTEDTATYFCARYDWDYYYSRLDLWGPGTLVTVSS
VL: DIVLTQTPASVSAAVGGTVSISCQSSESVYNNNYLSWFQQKPGQPPKLLIYGASTLASGVPSRFEGSGSGTQFTLTISDVQCDDAATYYCLGDYIIIENIFGGGTEVVVKG
notes: Rabbit monoclonal antibody (SLAM), recombinant; also called monoclonal anti-PACAP antibody 5; 5 (c71)
Turning to B2, in the test with human PACAP27 [11], the “IC50: inhibition of PACAP27 (10 pM)-induced activation of human PAC1 receptor, cAMP assay in SH-SY5Y (CRL-2266) cells, POC versus antibody concentration” value was found to be 41 nM. For the same molecule, the binding result in test [12], in test [13], in test [14] and in test [15] was “binds” in each case.

B3: mAb6 (antibody, V domains shown)
VH: QLEESGGGLVQPGASLTLTCTTSGFSLSDNYLCWVRQAPGRGLEWVACIGIVLRSTGATYYASWAEGRFTISKTSPTTVTLEMTSLTAADTATYFCALDLGYGGPLWGPGTLVTVSS
VL: AQVLTQTPASVSAAVGGTVTINCQASQSVYNNKNLAWYQQKPGQPPKLLIYFSSTLASGVPSRFRGSGSGTQFTLTISGVQCGDAATYYCLGEFGSIWAFGGGTEVVVKG
notes: Rabbit monoclonal antibody (SLAM), recombinant; also called monoclonal anti-PACAP antibody 6; 6 (c55)
On to B3, for which the binding result in [16] is given as “no binding (tested: 1:200 molar ratio (Ab:peptide))”; in test [7], “binds”; in test [17], “binds”.
